Experimental data published in IntAct's records for PubMed 11846417.

Tests used:
actn2_human ACTN2 = actn2_human ACTN2 (UniProt P35609)
telt_human TCAP = telt_human TCAP (UniProt O15273)
Chain of telt_human TCAP (O15273 whole entry): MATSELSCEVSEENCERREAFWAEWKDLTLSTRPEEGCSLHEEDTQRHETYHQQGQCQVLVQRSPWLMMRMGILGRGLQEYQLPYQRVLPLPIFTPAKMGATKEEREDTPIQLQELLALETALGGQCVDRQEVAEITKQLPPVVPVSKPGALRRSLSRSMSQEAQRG

Chain of actn2_human ACTN2 (P35609 whole entry): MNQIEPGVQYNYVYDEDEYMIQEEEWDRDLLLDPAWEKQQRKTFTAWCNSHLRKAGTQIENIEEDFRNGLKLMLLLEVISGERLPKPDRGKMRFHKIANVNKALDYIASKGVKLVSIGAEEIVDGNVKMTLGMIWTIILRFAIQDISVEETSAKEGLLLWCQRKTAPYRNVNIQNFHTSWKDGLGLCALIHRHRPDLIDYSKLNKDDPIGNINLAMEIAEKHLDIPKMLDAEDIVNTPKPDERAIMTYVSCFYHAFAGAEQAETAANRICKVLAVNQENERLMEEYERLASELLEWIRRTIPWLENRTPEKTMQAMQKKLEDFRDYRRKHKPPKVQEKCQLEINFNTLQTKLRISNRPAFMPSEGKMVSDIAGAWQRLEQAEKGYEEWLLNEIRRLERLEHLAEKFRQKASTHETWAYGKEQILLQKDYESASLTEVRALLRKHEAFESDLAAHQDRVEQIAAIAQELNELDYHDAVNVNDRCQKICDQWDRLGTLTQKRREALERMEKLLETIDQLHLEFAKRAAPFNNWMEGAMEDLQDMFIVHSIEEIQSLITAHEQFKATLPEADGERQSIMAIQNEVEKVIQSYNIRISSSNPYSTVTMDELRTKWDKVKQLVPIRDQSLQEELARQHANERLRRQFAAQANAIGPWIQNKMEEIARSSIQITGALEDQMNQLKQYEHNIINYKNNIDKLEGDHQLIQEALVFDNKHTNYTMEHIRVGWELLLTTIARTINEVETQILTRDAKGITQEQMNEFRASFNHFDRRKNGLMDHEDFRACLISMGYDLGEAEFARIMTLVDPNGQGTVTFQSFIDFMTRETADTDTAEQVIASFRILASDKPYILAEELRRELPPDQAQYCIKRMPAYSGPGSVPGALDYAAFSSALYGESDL

| Substance | effect of a mutation on the interaction (actn2_human ACTN2) | effect of a mutation on the interaction (telt_human TCAP) |
| --- | --- | --- |
| Titin (Homo sapiens), Q8WZ42 A743V | decreasing interaction | – |
| Titin (Homo sapiens), Q8WZ42 V54M | – | decreasing interaction |
